Measured values published in patent US20210221894A1.

Target: recombinant human DLL3 (ELISA coat) (human) (UniProt Q9NYJ7)
Experiment: ELISA, plate coated with recombinant human DLL3 0.5 µg/ml; commercial reagent mAb

recombinant human DLL3 (ELISA coat) (human), sequence (Q9NYJ7 27-492 limits assumed): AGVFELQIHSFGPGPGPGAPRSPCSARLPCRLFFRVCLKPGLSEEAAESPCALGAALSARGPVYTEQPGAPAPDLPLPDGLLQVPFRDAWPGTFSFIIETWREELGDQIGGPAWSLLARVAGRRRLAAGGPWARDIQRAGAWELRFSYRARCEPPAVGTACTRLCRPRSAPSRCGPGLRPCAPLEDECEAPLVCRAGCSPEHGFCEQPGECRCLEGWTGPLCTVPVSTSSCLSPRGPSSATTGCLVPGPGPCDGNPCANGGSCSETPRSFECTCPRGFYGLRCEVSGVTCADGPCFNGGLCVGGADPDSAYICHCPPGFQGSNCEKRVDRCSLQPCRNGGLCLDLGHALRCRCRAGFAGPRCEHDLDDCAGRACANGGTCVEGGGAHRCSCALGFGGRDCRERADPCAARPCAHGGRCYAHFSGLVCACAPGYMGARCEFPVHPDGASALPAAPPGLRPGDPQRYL

positive control antibody for DLL3 (R&D Systems, Minneapolis, Minn., Cat #MAB4315)
EC50: 0.1 nM
